For data set [1], the target named is SNAP25 full length (Homo sapiens) (UniProt P60880). To be noted: W indole-dU, X amine-dU, direct ELISA signal.
Data set [2] deals with Negative control random peptide. Nature of the data set: ELONA. To be noted: W indole, X amine.

The record followed here is patent US20220064648.

Where two headings read alike, the source gives them in different places.

Sequence of SNAP25 full length (Homo sapiens) (P60880 whole entry): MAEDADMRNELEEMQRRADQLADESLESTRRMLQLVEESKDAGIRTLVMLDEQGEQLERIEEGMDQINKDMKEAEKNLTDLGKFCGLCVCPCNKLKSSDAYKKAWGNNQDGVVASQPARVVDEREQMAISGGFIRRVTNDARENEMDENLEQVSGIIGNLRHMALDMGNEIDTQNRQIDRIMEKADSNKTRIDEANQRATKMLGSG

Turning to “TTTTTAAGCCCACCTGACTGTGGTGGGCACAGTTCGCCATCGTGGGCCCATG [PEP 1.14]”, the binding signal in data set [1] (Y phenol-dU [15 phenol-dU, 19 phenol-dU, 24 indole-dU, 34 phenol-dU, 40 indole-dU], negative peptide 5) was 2.

In the case of “TTTTTAAGCCCACACGTGTTCGGATCGCACAGTTATTGGCAGTCGTGCCATG [PEP 4.20]”, the binding signal in data set [1] (Y phenol-dU [17,19,20,25,34,36,43,46], negative peptide 3) came out at 4.

In turn, “TTTTTAACACGACGTTACTGTGGTCATCACAGGATGAGCCTGTCGTGCCATG [PEP 2.18]” showed a binding signal in data set [1] (Y phenol-dU [phenol-dU@15,19,35,46, indole-dU@16,24, amine-dU@27,43], negative peptide 9) of 0.

Take “TTTTTAACACGACTTGGGTTCGGAAGGCGAACCGCAGCAATGTGGGCCCATG [PEP 1.22]”: in data set [1] (Y phenol-dU [amine-dU @14, phenol-dU @15,20, indole-dU @19], negative peptide 2), the binding signal is 8.

In turn, “TTTTTAAGCCCACAAGCGTTCGGCTCTCATAGATCGTTGACGTGGGCCCATG [PEP 4.19]” showed a binding signal in data set [1] (Y phenol-dU [19,20,25,27,34,38], negative peptide 0) of 0.

“TTTTTAACACGACGCCAGTTCGAAGGTCACAGTTATTTGGCGTCGTGCCATG [PEP 1.11]”: in data set [1] (Y phenol-dU [19 indole-dU, 20 phenol-dU, 27 amine-dU, 34 phenol-dU, 36 indole-dU, 38 indole-dU, 43 amine-dU, 46 phenol-dU], negative peptide 11), the binding signal stood at 4.

“TTTTTAAGCCCACGGGGCTGTGAGCAACGAACATTGGCACAGTCGTGCCATG [PEP 4.21]”: the binding signal in data set [1] (Y phenol-dU [19,34,35,43,46], negative peptide 8) was 0.

As for “TTTTTAAGCCCACGGGTCTGTGGTCACCGAACGACGTGGCAGTGGGCCCATG [PEP 2.14]”, the binding signal in data set [1] (Y phenol-dU [17,19,24], negative peptide 7) amounted to 2.

The sequence “TTTTTAAGCCCACTGGCCTGTGGTCAGCGAACTGTGCGCTGGTGGGCCCATG [PEP 2.10]” gave a binding signal in data set [1] (Y phenol-dU [14,19,24,35,40], negative peptide 2) of 7.

“TTTTTAAGCCCACATACGTTCGATGGTCACAGATTGGGCAAGTCGTGCCATG [PEP 2.02]” showed a binding signal in data set [2] (Y phenol modified dU [15,19,20,24,27,34,35,43,46]) of 55 ELISA signal.

Turning to “TTTTTAACACGACGTCGCTGTGGTCAACGAACAGATACAACGTCGTGCCATG [PEP 2.07]”, the binding signal in data set [1] (Y phenol-dU [15,19,24,36,43,46], negative peptide 17) was determined as 8.

“TTTTTAAGCCCACGTTTGTTCGGTGGTCACAGCACGCCACGGTCGTGCCATG [PEP 2.08]” registered a binding signal in data set [1] (Y phenol-dU [15,16,17,19,20,24,27,43,46], negative peptide 9) of 8.

Regarding “TTTTTAAGCCCACAAAAGTTCGGGCAGCACAGGTCGCTGAGGTCGTGCCATG [PEP 4.14]”, in data set [1] (Y phenol-dU [19,38 indole-dU, 20,34,46 phenol-dU, 43 amine-dU], negative peptide 15), the binding signal came to 2.

Take “TTTTTAACACGACCGCCCTGTGGGCAACACAGGGATCTGCAGTCGTGCCATG [PEP 1.24]”: in data set [1] (Y phenol-dU [phenol-dU @19,46, indole-dU @36,38, amine-dU @43], negative peptide 9), the binding signal amounted to 8.

Consider “TTTTTAACACGACCATTCTGTGCCAGCCGAACTCCGTGCTGGTGGGCCCATG [PEP 4.08]”, for which the binding signal in data set [1] (Y phenol-dU [16,17,40 indole-dU, 19 phenol-dU], negative peptide 5) was determined as 9.

“TTTTTAAGCCCACCTCACTGTGCAAGTCACAGGTCGGCACCGTGGGCCCATG [PEP 3.23]” returned a binding signal in data set [1] (Y phenol-dU [15,19,34 (phenol-dU), 27 (amine-dU)], negative peptide 35) of 5.

As for “TTTTTAACACGACCATCCTGTGCCTCACGAACTCATTGCCCGTCGTGCCATG [PEP 1.02]”, the binding signal in data set [2] (Y phenol modified dU [16,19,25,36,43,46]) came out at 15 ELISA signal.

“TTTTTAAGCCCACCCGAGTTCGTCCAGCGAACCACGCGCGTGTCGTGCCATG [PEP 4.11]” displayed a binding signal in data set [2] (Y phenol modified dU [19,20,23,43,46]) of 0 ELISA signal.

Sequence “TTTTTAAGCCCACGGGTGTTCGACAGACACAGCAATACATCGTGGGCCCATG [SNAP.03]” yielded a binding signal in data set [2] (Y phenol modified dU [17,19,20,36,40]) of 21 ELISA signal.

For “TTTTTAAGCCCACTTCACTGTGGCTCGCACAGGCCGATGGGGTCGTGCCATG [PEP 1.23]”, the binding signal in data set [1] (Y phenol-dU [amine-dU @14,25,43, phenol-dU @15,19,46, indole-dU @38], negative peptide 0) was determined as 0.

In data set [1] (Y phenol-dU [phenol-dU@19], negative peptide 64), “TTTTTAAGCCCACGACACTGTGGCCAACACAGTACATGCATGTGGGCCCATG [PEP 3.07]” showed a binding signal of 10.

“TTTTTAAGCCCACGGTGCTGTGGAAGCCACAGTACAATGGAGTGGGCCCATG [PEP 4.22]”: in data set [1] (Y phenol-dU [16,19,38], negative peptide 3), the binding signal is 5.

The sequence “TTTTTAAGCCCACTTGGCTGTGCACATCACAGAACAAGCAGGTGGGCCCATG [PEP 2.11]” had a binding signal in data set [1] (Y phenol-dU [14,15,19,27], negative peptide 2) of 0.

In the case of “TTTTTAAGCCCACATGCCTGTGGTCATCGAACATTGGGCCGGTCGTGCCATG [PEP 2.13]”, in data set [1] (Y phenol-dU [15,19,24,27,34,35,43,46], negative peptide 11), the binding signal was 0.

Sequence “TTTTTAACACGACGTGACTGTGAGAGGCACAGTTTGGGGGCGTGGGCCCATG [PEP 4.15]” returned a binding signal in data set [1] (Y phenol-dU [15,19,34,35 phenol-dU], negative peptide 7) of 4.

As for “TTTTTAACACGACGTTACTGTGGTCACCACAGGATGAGCTTGTCGTGCCATG [PEP 2.15]”, the binding signal in data set [1] (Y phenol-dU [15,16,19,24,35,40,43,46], negative peptide 9) turned out to be 0.

In data set [1] (Y phenol-dU [14,25,27,43 (amine-dU), 19,46 (phenol-dU), 36 (indole-dU)], negative peptide 39), “TTTTTAACACGACTGCACTGTGAATCTCGAACGCATCGGGAGTCGTGCCATG [PEP 3.15]” gave a binding signal of 9.

As for “TTTTTAACACGACGTTACTGTGGTCACCACAGGATGAGCCTGTCGTGCCATG [PEP 2.01]”, the binding signal in data set [2] (Y phenol modified dU [15,16,19,24,35,43,46]) amounted to 204 ELISA signal.

Sequence “TTTTTAAGCCCACCAGGGTTCGGGAGCCGAACGCCAGCACTGTCGTGCCATG [PEP 3.24]” showed a binding signal in data set [1] (Y phenol-dU [19 (indole-dU), 20,46 (phenol-dU), 43 (amine-dU)], negative peptide 22) of 5.

Sequence “TTTTTAACACGACAGCCCTGTGCAGGCCGAACGGCGTTGATGTCGTGCCATG [PEP 4.12]” came in with a binding signal in data set [1] (Y phenol-dU [19,46 phenol-dU, 38 indole-dU, 43 amine-dU], negative peptide 3) of 0.

Take “TTTTTAACACGACACCACTGTGCCCACCACAGTTCACTGAAGTGGGCCCATG [PEP 3.14]”: in data set [1] (Y phenol-dU [19,34 (phenol-dU), 38 (indole-dU)], negative peptide 52), the binding signal worked out at 8.

“TTTTTAACACGACGTTACTGTGGTCACCACAGGATGAGGCTGTCGTGCCATG [PEP 2.17]” displayed a binding signal in data set [1] (Y phenol-dU [phenol-dU@15,19,35,46, indole-dU@16,24, amine-dU@43], negative peptide 12) of 2.

In data set [1] (Y phenol-dU [phenol-dU@19,34], negative peptide 51), “TTTTTAACACGACAGCACTGTGCACAGCACAGCTCAAGGGTGTGGGCCCATG [PEP 3.10]” displayed a binding signal of 10.

“TTTTTAACACGACATCACTGTGGAAGACACAGGACGTGCGTGTCGTGCCATG [PEP 3.22]” had a binding signal in data set [1] (Y phenol-dU [15,19,46 (phenol-dU), 43 (amine-dU)], negative peptide 26) of 7.

For the sequence “TTTTTAACACGACATAGGTTCGCTGGTCACAGAATGTTGTGGTGGGCCCATG [PEP 2.09]”, the binding signal in data set [1] (Y phenol-dU [15,19,20,24,27,35,38,40], negative peptide 5) was determined as 9.

“TTTTTAACACGACTATTCTGTGAGTCTCGAACTGCGACAACGTGGGCCCATG [PEP 4.18]” showed a binding signal in data set [1] (Y phenol-dU [14,16,17,19,25,27], negative peptide 4) of 10.

“TTTTTAACACGACATAGCTGTGACAGGCACAGGTCATGGGAGTCGTGCCATG [PEP 1.19]”: the binding signal in data set [1] (Y phenol-dU [phenol-dU @15,19,34,46, amine-dU @43], negative peptide 3) is 0.

Regarding “TTTTTAACACGACATATGTTCGACGGACACAGTGTGTGGCGGTCGTGCCATG [PEP 4.09]”, in data set [2] (Y phenol modified dU [15,17,19,20,35,43,46]), the binding signal is 0 ELISA signal.

In the case of “TTTTTAAGCCCACGCCAGTTCGGTCAACGAACTACGGTGATGTGGGCCCATG [PEP 4.17]”, the binding signal in data set [1] (Y phenol-dU [19,20,24,38], negative peptide 0) is 0.

“TTTTTAACACGACGCTCCTGTGACAGCCGAACATCATTGGTGTCGTGCCATG [PEP 1.04]”: in data set [1] (Y phenol-dU [16 indole-dU, 19 phenol-dU, 34 phenol-dU, 38 indole-dU, 43 amine-dU, 46 phenol-dU], negative peptide 4), the binding signal stood at 5.

In data set [1] (Y phenol-dU [19 indole-dU, 20,35,46 phenol-dU, 43 amine-dU], negative peptide 0), “TTTTTAAGCCCACGGCCGTTCGGCCACCACAGTGTGGCAGCGTCGTGCCATG [PEP 4.13]” showed a binding signal of 0.

“TTTTTAAGCCCACATAGGTTCGGTGGTCACAGTGTGGTGCGGTGGGCCCATG [PEP 2.16]” registered a binding signal in data set [1] (Y phenol-dU [15,19,20,24,27,35,38], negative peptide 5) of 4.

In data set [2] (Y phenol modified dU [19Y,24W,25X,34Y,40W,43X,46Y]), “TTTTTAACACGACAGCACTGTGGTTCGCGAACCTCAAGCTCGTCGTGCCATG [PEP 3.02]” came in with a binding signal of 59 ELISA signal.
